The nature of data set [1]: IAsys optical biosensor, affinity of avidin and avidin mutants towards 2-iminobiotin. In kind it is binding. On the procedure: (§1) Reversibility of biotin binding was measured for avidin and the mutants with an IAsys optical biosensor (Laitinen, O. H. et al., FEBS Lett 461 (1999), 52-8). Protein samples were allowed to bind to a biotin-aminosilane cuvette in PBS containing 1 M NaCl. After the equilibrium was reached, biotin-containing buffer was added and the dissociation of the proteins was monitored. The affinities of the proteins towards 2-iminobiotin were determined with an IAsys optical biosensor (Marttila, A. T. et al. FEBS Lett 441 (1998), 313-7). Biotin-binding activity of the mutants Avd-ci and Avd-ccci after heat treatment was studied with a microtiter plate assay. Protein samples, 5 μg/ml concentration in PBS, were heated for various time periods at 99.9° C. and then chilled on ice. The samples were transferred to a Nunc Maxisorp-plate and incubated at 37° C. for 2 h. The wells were washed three times with PBS-Tween (0.05% v/v). After that the wells were blocked with PBS containing 1% BSA at 37° C. for 30 minutes and washed again with PBS-Tween. Next, biotinylated alkaline phosphatase (Sigma) in PBS, 1% BSA was added and incubated at 37° C. for one hour. Once again, the wells were washed with PBS-Tween and the PNPP substrate in DEA buffer (1 mg/ml) was applied to the wells. The absorbances at 405 nm were measured after incubation for 45 minutes.

The conditions of data set [2]: 2-iminobiotin surface; from Nordlund 2003; read-out: Kd detected from the equilibrium response data; cited from earlier work.
In data set [3] the test system is biotinylated alkaline phosphatase. Description: Microtiter plate assay, biotin-binding activity after heat treatment at 99.9° C. As to conditions: 99.9° C. for various time periods. In kind it is physicochemical. On the procedure: as §1, with “After that the wells were blocked with PBS containing 1% BSA at 37° C. for 30 minutes and washed again with PBS-Tween. Next, biotinylated alkaline phosphatase (Sigma) in PBS, 1% BSA was added and incubated at 37° C. for one hour. Once again, the wells were washed with PBS-Tween and the PNPP substrate in DEA buffer (1 mg/ml) was applied to the wells.” left out
Biotin-binding activity of the proteins after heat treatment was studied with a microtiter plate assay (Nordlund, H. R., Laitinen, O. H., Uotila, S. T., Nyholm, T., Hytönen, V. P., Slotte, J. P. & Kulomaa, M. S. (2003) J. Biol. Chem. 278, 2479-2483). […] The absorbencies at 405 nm were measured after incubation for 45 minutes.

Data set [4] can be described thus: Differential scanning calorimetry of the avidin mutants. In kind it is physicochemical. As to conditions: for Tm: DSC, 100 mM Na-phosphate buffer pH 7.4. On the procedure:
In order to study the thermal stability of the purified avidin mutants, they were subjected to analysis by differential scanning calorimetry. A Nano II differential scanning calorimeter (Calorimetric Science Corporation, Provo, Utah) was used. […] The reference cell was filled with the same buffer that the sample proteins were dissolved in (100 mM Na-phosphate buffer pH 7.4). The thermograms were recorded as a function of temperature, between 25 and 130° C. at a temperature scan rate of 55.6° C./h. The baselines were subtracted and the transition midpoints (Tm) of the samples were calculated using proprietary software provided by the instrument manufacturer.

The conditions of data set [5]: cited from earlier work.
Data set [6] in a line: Differential scanning calorimetry of avidin and AVR4/5 forms. In kind it is physicochemical. As to conditions: 50 mM sodium phosphate pH 7.0, 100 mM NaCl. As to the method: The thermodynamics of the heat-induced unfolding of the proteins were studied using DSC. The transition midpoint of heat-induced denaturation (Tm) of the avidin and different AVR4/5 forms was studied using a Nano II differential scanning calorimeter (Calorimetric Sciences Corporation, Provo, Utah, USA). The reference cell was filled with buffer whereas the sample cell was filled with proteins dissolved in 50 mM sodium phosphate buffer, pH 7.0 containing 100 mM NaCl. Avidin and AVR4/5(C124S) were also analyzed in 50 mM Na-acetate pH 4.0 containing 100 mM NaCl. Furthermore, AVR4/5 was analyzed in the presence of 2-mercaptoethanol (0.4% v/v). The samples (1.6-9.6 μM) were analyzed both in the absence and presence of a three fold molar excess of biotin/subunit. All samples were degassed before being loaded into the DSC. The thermograms were recorded as a function of temperature; between 25 and 130° C. at a rate of 55.6° C./h (Gonzalez, M., Argarana, C. E. & Fidelio, G. D. (1999) Biomol. Eng. 16, 67-72; Nordlund, H. R., Laitinen, O. H., Uotila, S. T., Nyholm, T., Hytönen, V. P., Slotte, J. P. & Kulomaa, M. S. (2003) J. Biol. Chem. 278, 2479-2483). Data was analyzed using Microcal Origin 6.0 and Cpcalc 2.1 (Applied Thermodynamics, Hunt Valley, Md.). The change in heat capacity upon unfolding (ΔCp) was measured for avidin and AVR4/5(C124S) using DSC data from measurements in pH 4.0 and 7.0. ΔCp was then obtained from the slope of ΔH vs. Tm (Liu, Y. & Sturtevant, J. M. (1996) Biochemistry 35, 3059-3062).

The nature of data set [7]: IAsys optical biosensor, AVR4/5 forms binding to 2-iminobiotin surface. As to conditions: for Kd: 20° C. On the procedure: The biotin-binding characteristics of the different avidins were studied using an IAsys optical biosensor at 20° C. The reversibility of binding and binding affinities to the 2-iminobiotin surface in 50 mM borate buffer (pH 9.5, 1 M NaCl) were measured as previously reported (Laitinen, O. H., Hytönen, V. P., Ahlroth, M. K., Pentikäinen, O. T., Gallagher, C., Nordlund, H. R., Ovod, V., Marttila, A. T., Porkka, E., Heino, S., Johnson, M. S., Airenne, K. J. & Kulomaa, M. S. (2002) Biochem. J. 363, 609-617).
Briefly, The 2-iminobiotin ligand was immobilized onto the carboxymethyldextran surface of a cuvette using N-hydroxysuccinimide activation. Binding of various concentrations of avidin or avidin mutants onto 2-iminobiotinylated surface were measured in a 50 mM borate buffer (pH 9.5) containing 1 M NaCl at 20° C. The iminobiotin cuvettes were regenerated with 20 mM HCl. The kinetic rate constants for association (kass) and dissociation (kdiss) were calculated using the Fast Fit program package (Affinity Sensors). The obtained rate constants were used to calculate Kd(rel) according to Kd=kdiss/kass. Equilibrium data obtained from measurements with different protein concentrations were used to calculate the dissociation constant Kd(eq).

Data set [8] is described as follows: IAsys reversibility of binding to biotin, AVR4/5 forms. As to conditions: biotin cuvette. As to the method: The biotin-binding characteristics of the different avidins were studied using an IAsys optical biosensor at 20° C. […] H., Hytönen, V. P., Ahlroth, M. K., Pentikäinen, O. T., Gallagher, C., Nordlund, H. R., Ovod, V., Marttila, A. T., Porkka, E., Heino, S., Johnson, M. S., Airenne, K. J. & Kulomaa, M. S. (2002) Biochem. J. 363, 609-617).

Where [9] appears, read: previously published (Nordlund 2003; Gonzalez 1999).

Where two headings read alike, the source gives them in different places.

Data on two molecules can be found in US20060281899A1, “Mutants of biotin binding protein” (priority 2002, published 2006).

B1: Avd-ccci: Avidin mutant D86C, I106C, I117C with six intermonomeric disulphide bridges (protein, UniProt P02701 25-152, looked up, variant D86C I106C I117C)
Avidin: ARKCSLTGKWTNDLGSNMTIGAVNSRGEFTGTYITAVTATSNEIKESPLHGTQNTINKRTQPTFGFTVNWKFSESTTVFTGQCFICRNGKEVLKTMWLLRSSVNDCGDDWKATRVGCNIFTRLRTQKE
For the molecule B1, the Kd in data set [1] and in data set [2] was 290 nM in each case. Further, the “biotin-binding activity after heat treatment” value in data set [3] is reported as “remained active, in the sense of binding biotin, longer than the wild-type avidin”. Further, the ΔTm in data set [4] (+ biotin, difference in Tm compared to wt avidin + biotin) is 3.8 °C; in data set [4] (without biotin, difference in Tm compared to wt avidin) it was 9.2 °C; in data set [5] (change in Tm upon biotin addition, previously published values), 27.3 °C. Also, the Tm in data set [4] (+ biotin (biotin:avidin molar ratio 3:1)) came out at 122.0 ± 0.1 °C; in data set [4] (without biotin) it was 94.7 ± 0.5 °C. The “DSC Tm (+biotin)” value in data set [5] (setting [9]) is 122.0 ± 0.1 °C. In data set [5] (setting [9]), the “DSC Tm(−biotin)” value is 94.7 ± 0.5 °C.

B2: AVR4/5(N43E): AVR4/5 mutant, residue 43 changed to glutamate to avoid glycosylation (protein, UniProt P56734 25-150, looked up, variant N43E)
Avidin-related protein 4/5: ARKCSLTGKWTNNLGSIMTIRAVNSRGEFTGTYLTAVADNPGEITLSPLLGIQHKRASQPTFGFTVHWNFSESTTVFTGQCFIDRNGKEVLKTMWLLRSSVNDISYDWKATRVGYNNFTRLCTVEE
Consider B2, for which the “DSC Tm(−biotin)” value in data set [6] worked out at 104.9 ± 0.3 °C. In addition, in data set [7], the kass result is “(1.3 ± 0.3) × 10^4 M^−1s^−1” and the kdiss entry was “(1.8 ± 0.8) × 10^−3 s^−1”. The Kd in data set [7] (50 mM borate pH 9.5, 1 M NaCl, read-out: Kd detected from the equilibrium response data) was 110 nM. Also, in data set [7] (pH 9.5, 1 M NaCl, read-out: Kd detected directly from the binding curves), the equilibrium dissociation constant (Kd) amounted to 140 nM. The “Reversibility of binding to biotin” value in data set [8] came to 3 ± 2%.
